Source: the DeepSol protein solubility set

Test: soluble on expression in E. coli; label from the status in PepcDB or PDB records
For “MVKLDDKNKKFKGKKKVKNVLEKKAKGLKLNKVDRKRIVKIEEKAALKSKVDKAVKDELERLKKSSSTSVFDNDGTRDSLCSESSFGSQPAPKKKSKKVLFSGELEHVKVFDKRVQDLQIKPSEASPGRGILRSPLDKKVKKLAKVKTVKVAQEEEEEHSAPPKKKVKVNAEKAVASEPADDENLESVDEQAGGDESHIDIPTLKRKRVAIQVTKSVKEQLLNMPRKERKAFLKELKLKRKPEGARAQKCKELWEKIRMGKTPKAEKDTAVHELYGLVKGHAAKLIYAHDTSRVIECLVATEREGIINNLFNELTPEIVRMSKNVYSKFFVKKMLKNGTKEQRDIIINAFRGHAPTLLRIKHAAEVLEYAYNDFANAHQRYNIITEFYGKEFILFREDNIRSLTEILAEKPEKKVVILKHLDEVIGAVNEKETLRLSILHKLMLDFFDNCDEEKKINLLDSLKDKIPEFIHTPDGAKLAIKLIWFAPVKERKLIVKNFKDLSVKAAMEHYGHRVLLALFDTVDDTVLLNKVIVSELANEMKKLIEDDWGEKVIHYLVHPRDGRGIDKREITFLAEGDSNPHSKKTQKDRYGQLYAGITENLYPYLAANFEELVFEANKSKFVAACLETTSSFDLFDRQVPAEARKSCNQAIVELAKKDFVPMDQEGFHIIEHQSGNFILMAVMRCDAALQEDERLSVALAEGLTSKQLGSWVTCNRGCHVLLKMLQVGGPKVIEKLKASISRKHLDGYNSKGANLLKAQLDGNVKK”, the “soluble on expression in E. coli” value was “soluble”. For “MAHHHHHHMDTPEREVSPPPAEEDENKKRVIIILEGAHLQLIETKRYIYELANIMKHKHLLRDQKNEEEMRNFRPDILHQCLIHLLESALNKYGLLQVYIKTHDNQLFYVSSHLKIPKTYDQFESLMVTFLRKYKIKANEKNLCLLKFLKNDYSAILPINGKKIGLSVKGKKVHFSEYVQNLQNEDVPVTFFIGAVAYSNPITKLENLDDNICISEFSLSAATCCSTICSEFENLLGLF”, the “soluble on expression in E. coli” value was “soluble”. In the case of “MAFGLPDTAALNKAADQKTSVSMPVRGRLVMNDSGILDVQLVKTNTAGAVKVARAVLDKETGYWGYTLPAVADVPAQTIFVSPADALGANGPLTLSGPVPLPERILHTGDQISAPQATDKTVTPVADDLDFDDIILVFPPESGLKPLYVMYRSPRNMPGTVSGKGLEHHHHHH”, the “soluble on expression in E. coli” value is reported as “soluble”. With “MGSDKIHHHHHHADSDDENSNFSSGITGMNLSAEVLKHQPMVEKYARENGISEYVNVLLAIIQVESGGTAEDVMQSSESLGLPPNSLDTESSIKQGCKYFASLLSSSKNQGIDDLNVAIQSYNYGGGYVGYVAGKGKKHTFNLAESFAREKSGGKKVTYTNPIAVAKNGGWRWNYGNMFYVELVNQYLTVPQVSGELAQKVMNEALKYQGWKYVYGGSNPNTSFDCSGLTQWCYGKAGISLPRTAQAQYDATQHLPLSQAKAGDLVFFHSTYNAGSYVTHVGIYVGNNQMYHAGDPIGYADLSSSYWQQHLIGAGRVKQ” the “soluble on expression in E. coli” value was “not soluble”. In the case of “AKVATGTDILSAASNVSLQKARTWDEGVESKFSTTPVNDIFKDKKVVIFGLPGAYTGVCSSKHVPPYKHNIDKFKAKGVDSVICVAINDPYTVNAWAEKIQAKDAIEFYGDFDGSFHKSLELTTDLSAGLLGIRSERWSAYVVDGKVKALNVEESPSDVKVSGAETILGQI”, the “soluble on expression in E. coli” value is reported as “soluble”. In the case of “SMSMKATRLAIPDVILFEPRVFGDDRGFFFESYNQRAFEEACGHPVSFVQDNHSRSARGVLRGLHYQIRQAQGKLVRATLGEVFDVAVDLRRGSPTFGQWVGERLSAENKRQMWIPAGFAHGFVVLSEYAEFLYKTTDFWAPEHERCIVWNDPELKIDWPLQDAPLLSEKDRQGKAFADADCFP”, the “soluble on expression in E. coli” value is reported as “soluble”. In the case of “MRMSSNFRNPCMIRSDVPLSNDQIAHYVPSIFAEEAHDSRSARYLYIPTVQVLDALRAEGFEPFMACQTRVRDQGKREHTKHMLRLRHASQILDQEANEVILLNSHDGSSSYQMIGGKFRFVCANGLVLGDVAADQKVRHSGRGDVVHDVIEGAFEVLKHFEQIDHITADMKHQQLDQDEQEAFALAALAYRYDPAEGPAPVTPSQLLMPRRREDRSSDLWTTFNRVQENTIKGGLTGRNKQGRRTTTRAVNGIDQDVKLNRALWVLAQAMGEHRKAA”, the “soluble on expression in E. coli” value is reported as “not soluble”. For “MRGMAANQGERIRRRLSTGERREQLLSVGARLFSESPYDEVWIEQVAEIAGVSRGLLYHYFPNKRDFFAAVVERESERMLRMTAAVPGVPVREQLTAGLDAYLEYVRAHAHGYRAFHRADAAGDRAVRRVYQKALAAQERQILAALAADPEFGPAFEERGDVRLAVRGWLAFTTAVCLEWLRDPEPAREQVRDLCARALLGAVAP”, the “soluble on expression in E. coli” value was “not soluble”. In the case of “MYKHIVKRGETIASIARDYRTSVEALLRANGLTAASVIFPGQEIVIPHLPPKGSIPYTIHISISRRQLTLKHRGRTIRTYPIGVGKMVTATPVGDFVIVNRQPNPGGPFGAMWLSLSKIHYGIHGTNDPSSIGKYVSKGCIRMHNKDVLELASIVPNGTEVFIRP”, the “soluble on expression in E. coli” value is reported as “not soluble”. For “MLLREINRYCKEKATGKRIYAVPKLWIPGFFKKFDEKSGRCFVDPYELGAEITDWILNQSREWDYSQPLSFLKGEKTPDWIKRSVVYGSLPRTTAAYNHKGSGYYEENDVLGFREAGTFFKMMLLLPFVKSLGADAIYLLPVSRMSDLFKKGDAPSPYSVKNPMELDERYHDPLLEPFKVDEEFKAFVEACHILGIRVILDFIPRTAARDSDLIREHPDWFYWIKVEELADYTPPRAEELPFKVPDEDELEIIYNKENVKRHLKKFTLPPNLIDPQKWEKIKREEGNILELIVKEFGIITPPGFSDLINDPQPTWDDVTFLRLYLDHPEASKRFLDPNQPPYVLYDVIKASKFPGKEPNRELWEYLAGVIPHYQKKYGIDGARLDMGHALPKELLDLIIKNVKEYDPAFVMIAEELDMEKDKASKEAGYDVILGSSWYFAGRVEEIGKLPDIAEELVLPFLASVETPDTPRIATRKYASKMKKLAPFVTYFLPNSIPYVNTGQEIGEKQPMNLGLDTDPNLRKVLSPTDEFFGKLAFFDHYVLHWDSPDRGVLNFIKKLIKVRHEFLDFVLNGKFENLTTKDLVMYSYEKNGQKIVIAANVGKEPKEITGGRVWNGKWSDEEKVVLKPLEFALVVQE”, the “soluble on expression in E. coli” value was “soluble”. With “MTQGAVKTTGKRSRAVSAKKKAILSAALDTFSQFGFHGTRLEQIAELAGVSKTNLLYYFPSKEALYIAVLRQILDIWLAPLKAFREDFAPLAAIKEYIRLKLEVSRDYPQASRLFCMEMLAGAPLLMDELTGDLKALIDEKSALIAGWVKSGKLAPIDPQHLIFMIWASTQHYADFAPQVEAVTGATLRDEVFFNQTVENVQRIIIEGIRPR” the “soluble on expression in E. coli” value was “soluble”. For “MAHHHHHHMNAVDAEYVEHHGVDNLIIPISVSEPKETKRGDYAYCVDVVVHTLLIKKCSRGHRLLEHLTEKLVTLSIEWIRSECGVQLLPRSCRIAGNPLYFDDTVDTPKSIASIIENAAELLQRKSNSSNSRKDEQDTIPDALNLRKAQVPESKQPLIREVISTPAIKKGFLVDGNARLYGPDGSSEGSSKAPDPLAHIPESLRERCRIIDTRNMEGLTASPAKTMKSVDKTANTHTSGTFVAPTSEPQGKDEANWARFSIERTGEKVIVRFLAPDSVSSLHDIDLSATKDTLEINGSVTQLPVPIVTDDVRAKFVKATRILVVTCLIDVS”, the “soluble on expression in E. coli” value was “not soluble”. With “MAHHHHHHMMMMRPDAGRRGDRHEVTRSQWEMHNSVITDDAFLFPKMELMEELHKTQPWKKSPRYFQRVKVSVLAALQMMIHAKRGSPNVTCSNGSGVADSSAASMRNEPSRENWFEVMVLMLGHFNEDEMIVTSAFALPVDASEVECSMNDASQLYMLDFLQYHQRGGTQEGCIGWYHSHPGYTCFLSGTDVNTQQLGQTAQDPWLAIVVDPVRTISTGKLDMKAFRTFPEKYVAEQQGTSQHTQGKHWEGSTTSTWVPSERIREYGVHAHRYYELPITLVRSKDDEAQLECLWSRYWALTFCSNLFTANRKLMTKQIHQLAEVLESGVASRHQTMMKGDGYLPGHKLGSQHQRKGGGAVDDETPDGVEAFKQRSLHVRYLTSSLTSEAASGGNTAGGQKFRLSSMIFLLVLARVFLSF” the “soluble on expression in E. coli” value was “not soluble”. For “MGSDKIHHHHHHMLVPMSEGDTSELDHDADHLAEGDERYLLRNKRQIRGLLQQLIDQRAVVTMHVAGRDMAVPTAVLEVDEDDDCVILDGSHNDASNRAIEQAKYLLCYAQLERVNIRFRLETPERLERDIHVAFRATLPDSLYHLQRRESYRLETPITDSPTCTIRQDAASGGNLNLQLRVIDISSGGLAVSLTTGMPLLDPQHTYRDCTLQLPDSAPIALPLTVCSQYKMTLPNGSEGFRVGMQFSDLPRGADETIQRYIFRVDRQRNARKSGVF”, the “soluble on expression in E. coli” value was “not soluble”. With “MDTTYGPPAPALSGLTLGIREYSLFQAVLLVIDRLRDAHPHLSEDDLYDQLEFQANPSLGFPSSDVSRVEFFHEHGQMRARMQFNLIGLVGSGSPLPAFYGEQALGDSEDGNPTRNFLDLFHHRLQRLMLPIWKKYRYRASFESGALDPFSAQLFALIGLGGEEIRRAQELNWKRLLPYLGLLSLRAHSAALIEAVLRYYFKHAELTIEQCIERRVEILDEQRNRLGSANSMLGEDLVLGDHVRDRSGKFRIHIRELDWQRFHEFLPIGFGYQPLCALVRFTLRDPLDYDIRLVLRQEEIRELRIGEQNACRLGWTSWLGREKADGVVTLGSKIH” the “soluble on expression in E. coli” value was “not soluble”. With “GSHMIKVLSPAKINLGLWVLGRLPSGYHEILTLYQEIPFYDEIYIREGVLRVETNIGIPQEENLVYKGLREFERITGIEINYSIFIQKNIPPGAGLGGGSSNLAVVLKKVNELLGSPLSEEELRELVGSISADAPFFLLGKSAIGRGKGEVLEPVETEISGKITLVIPQVSSSTGRVYSSLREEHFVTPEYAEEKIQRIISGEVEEIENVLGDIARELYPEINEVYRFVEYLGFKPFVSGSGSTVYFFGGASEELKKAAKMRGWKVVELEL” the “soluble on expression in E. coli” value was “soluble”. With “MKGPYKHFMQKEIFEQPDSAFNTMRGRIDFENCVVTLGGLKSWLSTIRRCRRIIMIACGTSYHSCLATRSIFEELTEIPVSVELASDFLDRRSPVFRDDTCVFVSQSGETADSILALQYCLERGALTVGIVNSVGSSMSRQTHCGVHINAGPEIGVASTKAYTSQYIALVMFALSLSNDSISRKGRHEEIIKGLQKIPEQIKQVLKLENKIKDLCNSSLNDQKSLLLLGRGYQFATALEGALKIKEISYMHSEGVLAGELKHGILALVDEDLPIIAFATRDSLFPKVMSAIEQVTARDGRPIVICNEGDAIISNDKVHTTLEVPETVDCLQGLLNVIPLQLISYWLAVNRGIDVDFPRNLAKSVTVE” the “soluble on expression in E. coli” value was “soluble”. With “MGSDKIHHHHHHMNNKEIFEELATLARQPAIWFAARSFYGHGGNQRPDNSRRLLRVLAETDNNLTAGAIADILAIRPASVTQIIKKLENDEYIQRVRDESDARVVRVKITSKGRKQLELLEDKQSDFQTELFDVFDDDERQRFGESLRKLNEHVMSDEYLDNMRSKMDKHMRFGFDHFVNVSNARKFHENQTGYLKKMRQHQQQSPFNDEDNEGI” the “soluble on expression in E. coli” value was “not soluble”. With “GSLTTISSILSLKREKPDNLAIILQIDFTKLKEEDSLIVVYNSLKALTIKFARLQFCFVDRNNYVLDYGSVLHKIDSLDSISNLKSKSSSTQFSPIWLKNTLYPENIHEHLGIVAVSNSNMEAKKSILFQDYRCFTSFGRRRPNELKIKVGYLNVDYSDKIDELVEASSWTFVLETLCYSFGLSFDEHDDDDEEDN” the “soluble on expression in E. coli” value was “soluble”. With “EYGYEDLRESSNSLLNHQLSEIDQARLYSCLDHMREVLGDAVPDDILTEAILKHKFDVQKALSVVLEQDG” the “soluble on expression in E. coli” value was “soluble”.
